According to PMC6642140, “Boosting NAD^+ with a small molecule that activates NAMPT” (Nature Communications, 2019):

Substrate: Nc1ncnc2c1ncn2[C@@H]1O[C@H](COP(=O)(O)OP(=O)(O)OP(=O)(O)O)[C@@H](O)[C@H]1O
Assay: Km from NMN production assay with varied ATP; phosphorylates His247
Assay type: biochemical, Homo sapiens
Conditions: Mg2+ phosphorylation at His247

B1: NAMPT (nicotinamide phosphoribosyltransferase) (Homo sapiens) (protein)
chain: MNPAAEAEFNILLATDSYKVTHYKQYPPNTSKVYSYFECREKKTENSKLRKVKYEETVFYGLQYILNKYLKGKVVTKEKIQEAKDVYKEHFQDDVFNEKGWNYILEKYDGHLPIEIKAVPEGFVIPRGNVLFTVENTDPECYWLTNWIETILVQSWYPITVATNSREQKKILAKYLLETSGNLDGLEYKLHDFGYRGVSSQETAGIGASAHLVNFKGTDTVAGLALIKKYYGTKDPVPGYSVPAAEHSTITAWGKDHEKDAFEHIVTQFSSVPVSVVSDSYDIYNACEKIWGEDLRHLIVSRSTQAPLIIRPDSGNPLDTVLKVLEILGKKFPVTENSKGYKLLPPYLRVIQGDGVDINTLQEIVEGMKQKMWSIENIAFGSGGGLLQKLTRDLLNCSFKCSYVVTNGLGINVFKDPVADPNKRSKKGRLSLHRTPAGNFVTLEEGKGDLEEYGQDLLHTVFKNGKVTKSYSFDEIRKNAQLNIELEAAHH
notes: recombinant, N-terminal His tag removed with thrombin
Km: 1730 ± 320 µM
